Data as given in a protein production outcome set (Wang et al. 2014).

Assay: label from the status in PepcDB records
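Also: failed if final PepcDB status was selected cloned or expressed and not failed if soluble or beyond.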

Sequence	protein production
MIVPGGFPAPVTGSAVAASPPLPTVRLLSLDAHGRVLDWINWQDAACLYARDAVSWTLGEPCMQIHGGVSRLTGERSVLELHPIIAARGHARSRALDPTPTLTNTALFARDSQLCMYCGQHFSRPHLTRDHVMPVSKGGRDSWENVVTACFQCNSRKANRTPQQAHMPLLAVPYRPSWIEHLILSNRNILSDQMAFLRAQLPKRSKLSLLEHHHHHH	failed
MKHPLQDMFTSAIEAVARDSGWAELSAVGSYLAKNDPSFDPRNWGHGRLSQMVKKLDFLTVQESRNGSKLHSEIRLRHDGLEHHHHHH	not failed
MSSTALEMASRFVNRSPFNRWLGMSVLEAGEQGIVLGIKWREELISSPEIRSTHGGILATLVDAAGDYAVALKTGHPVPTMDMHVDYHRVATPGDLRAEGQVIHFGKRFATAHARVLDMDGNLVASGRALYLIRAPQPGAAQGAA	failed
MDKKYDITAVLNEDSSMTAISDQFQITLDARPKHTAKGFGPLAALLSGLAACELATANLMAPAKMITINKLLMNVTGSRSTNPTDGYFGLREINLHWEIHSPNSETEIKEFIDFVSKRCPAHNTLQGVSQLKINVNVTLVH	not failed
MISGNTINHKNNMAGLKSLVKDTALYGLSSMVGRFLNYLLVPLYTAVLPAASGGYGVVTNVYAWAGLIMVLLTFGMETGFFRFANKSEEDPVKVYANSLISVGGISLIFAILCLTFLQPVSHLLEYGDHPDFIGMMIIVMALDAFLCIPFAYLRFKKRPIKFVAIKFVSIIANIVLNLFFLLLCPWLHEHFPAWVDWFYNPTYLVGYIFVSNLITTCLQLFCLIPELRGFAYRVDKQLLKRMLIYSFPILIFGLVGILNQTVDKIIYPFLFADRQEGLVQLGIYGAATKIAMVMAMFTQAFRYAYEPFVFGKQKEGDNRRMYAQAMKYFLIFAMFAFLVVMFYLDLLRYMVAPDYWAGLSVVAIVIGAEIFKGIYFNLSFWYKLIDETRWGAYFSIVGCVIIVGMNVMLVPTYGFVASAWASVAGYAVITILSYWIGQKKYPIHYDLKHLGTYVLFTAVLYVIGEWVPIENIVLRLAFRTVLLLIFMAYVVRKDLPLSQIPVINRIIKKK	failed
MSAPSSPSTSQTRPPARSLWRRRRTWFLVGGGGLGAAAVVVLLGIWWRSPTPEAAIALRQSDFAELRWQSRFAMDAATRQRARFLYALAIAPDQPQAALQALQGLERSYPLLGPYILKLRAQVQTQLGQDPRETWRQLLNTYPESPVQAEAVLALGQWDLAPATIQRWPRYPASNELARQLAKRQPAEAKRWLLQIAQFGRYRFDIDAVLSELQALPNLTARDRQQIADAYWQRDDYATAADLYARSPQTDETLYRQARSLDLTSQPEVARTLYQQLLQRFPQSPERERALVHLVRLDPANRDRYLQLLERQFALSLPEALGLAAATEPRYRPILLQRFPASPEAAALRWQQAWQQAEAGNLPQAIALVTQTRDRSPTIEAAAQAGFWLGRWQTQLGQTDAAQAAWQWVLQQHPDSYYAWRSAAALGWPVGDFSQVQAQQPAWPQAQSPQALPAGSAVLKELYALGQTEDAWRLWQQEGPSRDPSPSDRFISALLEASISRYDRAASLLKGLPIDSPLRQRSDFVSTLYPVVFKEEITAATQRDRLNPLLVLGLIRQESRFLPGATSVVGARGLMQLMPETAAEVAAELGLQQYDLGDPQTNIQLGSRYLRNVLDYWREDSLFAIASYNAGPGNVENWVRRFGRRDRDRWLEQIPFPETRDYVEKVLSNYWNYLRQSDRSLEQRLQQLDR	failed
FDENWGADEELLLIDACETLGLGNWADIADYVGNARTKEECRDHYLKTYIE	not failed
MDESAALRAFQDALRTQRPEFGQFFLARLLGLDISYPDGQCLIVFEPQDFLFNPQGSLHGGIIATVMDISMGHLLNHVQGAGLTLEMKTQYLKAVRQGTVYCRGEFLQRGRSVSFLKSTLTDAQGEPLAMATSTWKALSPARAPGVDAAAR	failed
MPSMPFLTRPVLAAGTFSGAPQPTLPTGDGLVLRPWRTEDAPAVHVAFQDPVMHQWHARAADSEEEVRGWITEWQGAWERERGVQWAVADAADDRLLGRVALREWVLGDGVAEVAYWTTADARGRGVAARATRTLAHWALDEIGFQRLELLHAVANDASCRVAQKTGFALEGTKRKAVLHPDGWHDMHLHARVRGD	failed
TKDWKFTVSMNTAYNKNKIISLPYNGLPNNMQDAYQVYTGRKLADGTYERQWVGGYQEGQEYGVIYAFKSLGIYKSESEIPGNLIDRSTYTENGADAKVLYGPEAWAKLSDAEKEKGLPIQAGDVKWQDVNGDGVIDDYDRVKLGNTIPHWTGGFNINTSWKGLTLNCRLDYALGYWVHDWKTPWIMGNMQGTFNTISLVKDSWSESNPNGKYPVYGWADFLGKRNYDRISDINCYRGDYLAFREISLSYSLPQSWIHKSGLSKVDVSVTAQNLGYITAAKNMATPEYGVSQNGGYPLPRTVVLGLNVTF	failed
MGNIYQITVEEKAEHQRTLSFEFSLHDDLFKLLEKVDGKMDMTPEQTQAFMVGLKLFGEVMMQQRKHPLFKEFSAPFRAFMMNLKKQ	not failed
MDVVDSLLVNGSNITPPCELGLENETLFCLDQPRPSKEWQPAVQILLYSLIFLLSVLGNTLVITVLIRNKRMRTVTNIFLLSLAVSDLMLCLFCMPFNLIPNLLKDFIFGSAVCKTTTYFMGTSVSVSTFNLVAISLERYGAICKPLQSRVWQTKSHALKVIAATWCLSFTIMTPYPIYSNLVPFTKNNNQTANMCRFLLPNDVMQQSWHTFLLLILFLIPGIVMMVAYGLISLELYQGIKFEASQKKSAKERKPSTTSSGKYEDSDGCYLQKTRPPRKLELRQLSTGSSSRANRIRSNSSAANLMAKKRVIRMLIVIVVLFFLCWMPIFSANAWRAYDTASAERRLSGTPISFILLLSYTSSCVNPIIYCFMNKRFRLGFMATFPCCPNPGPPGARGEVGEEEEGGTTGASLSRFSYSHMSASVPPQ	failed
MPEWAAFVGLTGFLLTALLGLARLSQGAVRSDGGVSSTVDGVSMADRDPTIPRFETQRAAAQRQQMRDTLAPSDVSTGALLANVAFTQGLFGVLLVAGAFYFEIPASAFGVTSDALSTGLPAVAIGIGAGIGFWVGNEGAAALADGFGVTFDESLRELLAPDSPGGWVILLGGVLPVIAIVEELLFRAAAIGVPVAGLNAPAWAMAIVASVAFALGHGAQGRVGIVVTGTLGLALAGLFIATNSLLAVVVAHYLVNALELLVHEGLGVDRLWA	failed
MKVWPVKHSPLLRQPERFIARSELQALIRNVTQNLVNIKDESGQFLLRLDDGRVIDTKGWAGWEWTHGVGLYGIYQYYQQTGDIEMRDIIDRWFADRFAEGATTKNVNTMAPFLTLAYRFEETGRMAYLPWLESWAEWAMHEMPRTEQGGMQHMTLAEENHQQMWDDTLMMTVLPLAKIGKLLNRPQYVEEATYQFLLHVQNLMDRETGLWFHGWNYEGRHNFARARWARGNSWLTMVIPDFLELVDLPEGNAVRRYLITVLDAQIAALAECQDDSGLWHTLLDDPHSYLEASATAGFAYGILKAVRKRYVGQHYAGVAEKAIRGIVQNISPQGELLQTSFGTGMGSDLDFYRQIPLTSMPYGQAMAILCLTEYLRKYF	not failed
MATHNIHMDCAVNPSVRWRSRPVSTQVPRTRRFAAVVGPIAFSTLGIVLSLFAAVAVDAQPRTPGRVAAVFPPWWDDARVVASAGTAGDIAGAGGASFIVILRGDPATLNQRARTAGAWLLLDPALAGACARPASEPVSS	failed
MQGWLVIPVSLAYLGVLFLIAWYGDRQTRWLANWRPWIYSLSIAVYCTSWTFYGTVGQASVNPWSFLPIYIAPILMFVFGWRVLARLILIAKREHITSLADFIAARYGKSQGLAVAVTVIAVLGILPYIALQLRGITMGLNIVAPDLMTVYGYQESHVSWFVVLALALFTMLFGTRHIDNTEHHRGMMMAIAFESIVKLVAFLCVGVFIAYLAWRTDGLELSTIAASTYQAPNWPTLLIHTLLTMIAIVCLPRQFHTMVVENERPQDLHTARWLFPVYLLLMSLFVLPIAWTGQGLLPNTSPDTFVISLPVFAGAHDIALLAFLGGTSAASGMVIVSTIALAIMVSNDLVMPLLLRRMRLSQRTHRHFSGLLVVIRRTLILLLLFGAWGFYLVLDSIPSLSAIGFLSFSAITQFAPAIFGGMYWREGNRKGVYVGLAVGFTLWLITLMSATDMLAGDASNNVLLWVITPPDWLVALGLKSADWGMLLSVTLNTLCYIGVSLVTRASLSERLQAAAFVGTPLPENENMSLYQSRVTVGELEMLASRFVGRTRVRNAFAQYWSQQRETLLPNQQASSALIRHTERVLAGVFGASSAKLVLTSALQGRKMQLEEVATIVDEASELYDFSRGLLQGAIEHIGQGIAVVDKQLRLVAWNQRYLELFEFPPGLIQVGRPIADVIRHNAQQGLCGPGDPEDHVRRRVYHLEQGTSHTSSRVRADGRVIEVQGNPMPGGGFVMSFTDITVFREAEQSLKMANETLEERVLQRTLELEKLNKQLVTATQRSERESQSKSRFLAAVSHDLMQPLNAARLFASSLSEVAKEAEVQKLAHHIESALGAAEDLISDLLDISRLESGKIDLHPHSFAIMDVLSNLNAEFSALAAKQGVQFSLVPSLLWVHSDPKLLRRVIQNFLTNAFRYNPNGKVILGVRRVATGQVRIDVWDNGIGIEQDKQQEIFEEFNRGGQVRSDQGLGLGLAISKGIAHVLGHHISMRSWPGQGSVFSITLDRAQPMPSSLTQTVAMVNEKGSELQHLRVLCVDNEPDILVGMRDLLERWGCEVKTATDIHGSLKALEGQWIPDVILSDYRLDNGRTGLEVLQQCRLRLGDCFAGVIISADRNPDILDGIESSGFRFMAKPIKPLKLRALLNSLS	failed
QALPEKALDSFIVTGLSKRGWTTWLTAIVDSRVVAIAPFVIDLLDTRAALEHMYQSYGGNWPIAFTPYYLDEVDKKLDTASFAKLMQIIDPLQYMGTEYQSRLSIPKYIINASGDDFYVPDNTDFYYDKLPGEKALRVAPNASHSGIKAFSEQSLISFVNR	failed
MCKPPMRLLTQTGLPRSSERQIRILEIVTGNRKGKHQPKPISKPQPNISMPKIIEAIYENGVFKPLQKVNFRPGSKVRIVIQEDKKEILRKYKGVFGKAEVEELREYEGEVMLLEHHHHHH	failed
MGTGGITSNAHVVSPTWHHKHVPPMDDDSVLQRDIGELLSRWGGLQMAVKNQWGGHDSLKKSQELAHNLFHLISQSNGSIFFLLL	failed
MEAVVVEREAKGMKEIAIQEKDLTLQWRGNTGKLVKVRLKNTRAMEMWYNKQITEENIQEITTLNIIKNGKSLALEVYPEKSIYVKPNLGRINVPVFFIKTPINRGVFEEIFGETLKA	not failed
SHLVVESFPSYRDVTLFEGKRVSFYKRAQILVADTWSVLEGKGDGCFKDISSITMFADYRLPQVLAHLGALKYSDDLLKKLLKGEMLSYGDRQEVEIRGCSLWCVELIRDCLLELIEQKGEKPNGEINSILLDYYLWDYAHDHREDMKGIPFHRIRCIYY	failed
VFHPVECSYCHSESMMGFRYRCQQCHNYQLCQDCFWRGHAGGSHSNQHQMKEYTSW	not failed
